These results are taken from US20240261333A1, “NOVEL TARGETS FOR ENHANCING ANTI-TUMOR IMMUNITY” (THE BROAD INSTITUTE, INC., priority 2021, published 2024).

The assay concerns the target T1, B3GNT2 (Homo sapiens, UniProt Q9NY97).
T1 construct: The respective ORFs of candidate genes [CD274 (NM_014143), MCL1 (NM_021960), JUNB (NM_002229), and B3GNT2 (NM_006577)] were synthesized; expressed in transfected cells; host or cells: A375 melanoma cells (lentiviral ORF overexpression)
T1 sequence (Q9NY97 1-397): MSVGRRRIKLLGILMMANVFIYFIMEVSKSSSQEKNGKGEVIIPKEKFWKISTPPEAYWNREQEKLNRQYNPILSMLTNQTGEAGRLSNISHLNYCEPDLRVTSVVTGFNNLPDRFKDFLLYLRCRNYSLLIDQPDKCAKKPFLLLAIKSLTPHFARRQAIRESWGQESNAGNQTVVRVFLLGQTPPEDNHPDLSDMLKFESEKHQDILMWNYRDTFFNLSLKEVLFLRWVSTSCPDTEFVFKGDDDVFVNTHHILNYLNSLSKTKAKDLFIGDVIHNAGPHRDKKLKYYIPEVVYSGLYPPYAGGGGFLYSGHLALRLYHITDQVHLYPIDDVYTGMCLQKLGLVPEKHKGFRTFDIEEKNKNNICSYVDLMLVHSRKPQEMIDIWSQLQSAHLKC
The experiment in a line: Co-IP of FLAG-tagged B3GNT2 followed by mass spectrometry. Format: cell-based. Further details: C-term IgG / C-term flag: unit not given here. Particulars: mass spectrometry count, unit not given; for C-term flag / N-term FLAG: Co-IP with FLAG antibody; for C-term flag / C-term IgG: C-terminally FLAG-tagged B3GNT2; for N-term FLAG / N-term IgG: N-terminally FLAG-tagged B3GNT2; for C-term IgG / N-term IgG: Co-IP with IgG control antibody. The method in brief:
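Co-purifying proteins were identified by fractionated nano-LC–MS/MS on an Orbitrap Elite, run data-dependent. Beforehand, lysates in 1% Triton X-100/HEPES buffer were incubated overnight at 4° C with anti-FLAG or […] and pulled down on Protein A/G magnetic beads for 4 h. Duplicate biological replicates.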

B1: MYL9 (protein)
chain: SSKRAKAKTTKKRPQRATSNVFAMFDQSQIQEFKEAFNMIDQNRDGFIDKEDLHDMLASLGKNPTDEYLEGMMSEAPGPINFTMFLTMFGEKLNGTDPEDVIRNAFACFDEEASGFIHEDHLRELLTTMGDRFTDEEVDEMYREAPIDKKGNFNYVEFTRILKHGAKDKDD
As for B1, the C-term flag stood at 0, the “N-term FLAG” value is 3, the “C-term IgG” value is listed as 0 and the “N-term IgG” value stood at 0.

B2: TGM3 (protein)
chain: AALGVQSINWQTAFNRQAHHTDKFSSQELILRRGQNFQVLMIMNKGLGSNERLEFIVSTGPYPSESAMTKAVFPLSNGSSGGWSAVLQASNGNTLTISISSPASAPIGRYTMALQIFSQGGISSVKLGTFILLFNPWLNVDSVFMGNHAEREEYVQEDAGIIFVGSTNRIGMIGWNFGQFEEDILSICLSILDRSLNFRRDAATDVASRNDPKYVGRVLSAMINSNDDNGVLAGNWSGTYTGGRDPRSWNGSVEILKNWKKSGFSPVRYGQCWVFAGTLNTALRSLGIPSRVITNFNSAHDTDRNLSVDVYYDPMGNPLDKGSDSVWNFHVWNEGWFVRSDLGPSYGGWQVLDATPQERSQGVFQCGPASVIGVREGDVQLNFDMPFIFAEVNADRITWLYDNTTGKQWKNSVNSHTIGRYISTKAVGSNARMDVTDKYKYPEGSDQERQVFQKALGKLKPNTPFAATSSMGLETEEQEPSIIGKLKVAGMLAVGKEVNLVLLLKNLSRDTKTVTVNMTAWTIIYNGTLVHEVWKDSATMSLDPEEEAEHPIKISYAQYEKYLKSDNMIRITAVCKVPDESEVVVERDIILDNPTLTLEVLNEARVRKPVNVQMLFSNPLDEPVRDCVLMVEGSGLLLGNLKIDVPTLGPKEGSRVRFDILPSRSGTKQLLADFSCNKFPAIKAMLSIDVAE
Consider B2, for which the C-term flag was 5, the “N-term FLAG” value came to 9, the “C-term IgG” value came out at 3 and the “N-term IgG” value is given as 2.

B3: HYOU1 (protein)
chain: LAVMSVDLGSESMKVAIVKPGVPMEIVLNKESRRKTPVIVTLKENERFFGDSAASMAIKNPKATLRYFQHLLGKQADNPHVALYQARFPEHELTFDPQRQTVHFQISSQLQFSPEEVLGMVLNYSRSLAEDFAEQPIKDAVITVPVFFNQAERRAVLQAARMAGLKVLQLINDNTATALSYGVFRRKDINTTAQNIMFYDMGSGSTVCTIVTYQMVKTKEAGMQPQLQIRGVGFDRTLGGLEMELRLRERLAGLFNEQRKGQRAKDVRENPRAMAKLLREANRLKTVLSANADHMAQIEGLMDDVDFKAKVTRVEFEELCADLFERVPGPVQQALQSAEMSLDEIEQVILVGGATRVPRVQEVLLKAVGKEELGKNINADEAAAMGAVYQAAALSKAFKVKPFVVRDAVVYPILVEFTREVEEEPGIHSLKHNKRVLFSRMGPYPQRKVITFNRYSHDFNFHINYGDLGFLGPEDLRVFGSQNLTTVKLKGVGDSFKKYPDYESKGIKAHFNLDESGVLSLDRVESVFETLVEDSAEEESTLTKLGNTISSLFGGGTTPDAKENGTDTVQEEEESPAEGSKDEPGEQVELKEEAEAPVEDGSQPPPPEPKGDATPEGEKATEKENGDKSEAQKPSEKAEAGPEGVAPAPEGEKKQKPARKRRMVEEIGVELVVLDLPDLPEDKLAQSVQKLQDLTLRDLEKQEREKAANSLEAFIFETQDKLYQPEYQEVSTEEQREEISGKLSAASTWLEDEGVGATTVMLKEKLAELRKLCQGLFFRVEERKKWPERLSALDNLLNHSSMFLKGARLIPEMDQIFTEVEMTTLEKVINETWAWKNATLAEQAKLPATEKPVLLSKDIEAKMMALDREVQYLLNKAKFTKPRPRPKDKNGTRAEPPLNASASDQGEKVIPPAGQTEDAEPISEPEKVETGSEPGDTEPLELGGPGAEPEQKEQSTGQKRPLKNDEL
Take B3: the C-term flag is on record as 27, the “N-term FLAG” value came to 0, the “C-term IgG” value is 0 and the “N-term IgG” value was 0.

B4: ERLIN1 (protein)
chain: MNMTQARVLVAAVVGLVAVLLYASIHKIEEGHLAVYYRGGALLTSPSGPGYHIMLPFITTFRSVQTTLQTDEVKNVPCGTSGGVMIYIDRIEVVNMLAPYAVFDIVRNYTADYDKTLIFNKIHHELNQFCSAHTLQEVYIELFDQIDENLKQALQKDLNLMAPGLTIQAVRVTKPKIPEAIRRNFELMEAEKTKLLIAAQKQKVVEKEAETERKKAVIEAEKIAQVAKIRFQQKVMEKETEKRISEIEDAAFLAREKAKADAEYYAAHKYATSNKHKLTPEYLELKKYQAIASNSKIYFGSNIPNMFVDSSCALKYSDIRTGRESSLPSKEALEPSGENVIQNKESTG
For B4, the C-term flag stood at 9, the “N-term FLAG” value was found to be 11, the “C-term IgG” value is given as 0 and the “N-term IgG” value is 0.

B5: FAM3A (protein)
chain: FPRIQQLFTSPESSVTAAPRARKYKCGLPQPCPEEHLAFRVVSGAANVIGPKICLEDKMLMSSVKDNVGRGLNIALVNGVSGELIEARAFDMWAGDVNDLLKFIRPLHEGTLVFVASYDDPATKMNEETRKLFSELGSRNAKELAFRDSWVFVGAKGVQNKSPFEQHVKNSKHSNKYEGWPEALEMEGCIPRRSTAS
Take B5: the C-term flag stood at 18, the “N-term FLAG” value came to 9, the “C-term IgG” value turned out to be 0 and the “N-term IgG” value amounted to 0.

B6: PRDX2 (protein)
chain: ASGNARIGKPAPDFKATAVVDGAFKEVKLSDYKGKYVVLFFYPLDFTFVCPTEIIAFSNRAEDFRKLGCEVLGVSVDSQFTHLAWINTPRKEGGLGPLNIPLLADVTRRLSEDYGVLKTDEGIAYRGLFIIDGKGVLRQITVNDLPVGRSVDEALRLVQAFQYTDEHGEVCPAGWKPGSDTIKPNVDDSKEYFSKHN
For the molecule B6, the C-term flag amounted to 5, the “N-term FLAG” value is 9, the “C-term IgG” value amounted to 0 and the “N-term IgG” value was 5.

B7: CALR (protein)
chain: EPAVYFKEQFLDGDGWTSRWIESKHKSDFGKFVLSSGKFYGDEEKDKGLQTSQDARFYALSASFEPFSNKGQTLVVQFTVKHEQNIDCGGGYVKLFPNSLDQTDMHGDSEYNIMFGPDICGPGTKKVHVIFNYKGKNVLINKDIRCKDDEFTHLYTLIVRPDNTYEVKIDNSQVESGSLEDDWDFLPPKKIKDPDASKPEDWDERAKIDDPTDSKPEDWDKPEHIPDPDAKKPEDWDEEMDGEWEPPVIQNPEYKGEWKPRQIDNPDYKGTWIHPEIDNPEYSPDPSIYAYDNFGVLGLDLWQVKSGTIFDNFLITNDEAYAEEFGNETWGVTKAAEKQMKDKQDEEQRLKEEEEDKKRKEEEEAEDKEDDEDKDEDEEDEEDKEEDEEEDVPGQAKDEL
Turning to B7, the C-term flag turned out to be 20, the “N-term FLAG” value was 6, the “C-term IgG” value was determined as 0 and the “N-term IgG” value was found to be 0.

B8: HSD17B12 (protein)
chain: MESALPAAGFLYWVGAGTVAYLALRISYSLFTALRVWGVGNEAGVGPGLGEWAVVTGSTDGIGKSYAEELAKHGMKVVLISRSKDKLDQVSSEIKEKFKVETRTIAVDFASEDIYDKIKTGLAGLEIGILVNNVGMSYEYPEYFLDVPDLDNVIKKMININILSVCKMTQLVLPGMVERSKGAILNISSGSGMLPVPLLTIYSATKTFVDFFSQCLHEEYRSKGVFVQSVLPYFVATKLAKIRKPTLDKPSPETFVKSAIKTVGLQSRTNGYLIHALMGSIISNLPSWIYLKIVMNMNKSTRAHYLKKTKKN
Turning to B8, the C-term flag is 10, the “N-term FLAG” value was determined as 10, the “C-term IgG” value was 0 and the “N-term IgG” value was 0.

B9: PIP (protein)
chain: QDNTRKIIIKNFDIPKSVRPNDEVTAVLAVQTELKECMVVKTYLISSIPLQGAFNYKYTACLCDDNPKTFYWDFYTNRTVQIAAVVDVIRELGICPDDAAVIPIKNNRFYTIEILKVE
Turning to B9, the C-term flag was 3, the “N-term FLAG” value is recorded as 4, the “C-term IgG” value is listed as 2 and the “N-term IgG” value is 0.

B10: FAM3C (protein)
chain: QVFEIKMDASLGNLFARSALDTAARSTKPPRYKCGISKACPEKHFAFKMASGAANVVGPKICLEDNVLMSGVKNNVGRGINVALANGKTGEVLDTKYFDMWGGDVAPFIEFLKAIQDGTIVLMGTYDDGATKLNDEARRLIADLGSTSITNLGFRDNWVFCGGKGIKTKSPFEQHIKNNKDTNKYEGWPEVVEMEGCIPQKQD
For B10, the C-term flag stood at 23, the “N-term FLAG” value was found to be 2, the “C-term IgG” value worked out at 0 and the “N-term IgG” value was determined as 0.

B11: SLC25A4 (protein)
chain: GDHAWSFLKDFLAGGVAAAVSKTAVAPIERVKLLLQVQHASKQISAEKQYKGIIDCVVRIPKEQGFLSFWRGNLANVIRYFPTQALNFAFKDKYKQLFLGGVDRHKQFWRYFAGNLASGGAAGATSLCFVYPLDFARTRLAADVGKGAAQREFHGLGDCIIKIFKSDGLRGLYQGFNVSVQGIIIYRAAYFGVYDTAKGMLPDPKNVHIFVSWMIAQSVTAVAGLVSYPFDTVRRRMMMQSGRKGADIMYTGTVDCWRKIAKDEGAKAFFKGAWSNVLRGMGGAFVLVLYDEIKKYV
As to B11, the C-term flag stood at 14, the “N-term FLAG” value was 9, the “C-term IgG” value is 0 and the “N-term IgG” value amounted to 0.
